B1: Pyridoxal 5'-phosphate synthase subunit PDX1.3 (Arabidopsis thaliana (Mouse-ear cress)), Q8L940 (parent)
chain: MEGTGVVAVYGNGAITEAKKSPFSVKVGLAQMLRGGVIMDVVNAEQARIAEEAGACAVMALERVPADIRAQGGVARMSDPQMIKEIKQAVTIPVMAKARIGHFVEAQILEAIGIDYIDESEVLTLADEDHHINKHNFRIPFVCGCRNLGEALRRIREGAAMIRTKGEAGTGNIIEAVRHVRSVNGDIRVLRNMDDDEVFTFAKKLAAPYDLVMQTKQLGRLPVVQFAAGGVATPADAALMMQLGCDGVFVGSGIFKSGDPARRARAIVQAVTHYSDPEMLVEVSCGLGEAMVGINLNDEKVERFANRSE
partner: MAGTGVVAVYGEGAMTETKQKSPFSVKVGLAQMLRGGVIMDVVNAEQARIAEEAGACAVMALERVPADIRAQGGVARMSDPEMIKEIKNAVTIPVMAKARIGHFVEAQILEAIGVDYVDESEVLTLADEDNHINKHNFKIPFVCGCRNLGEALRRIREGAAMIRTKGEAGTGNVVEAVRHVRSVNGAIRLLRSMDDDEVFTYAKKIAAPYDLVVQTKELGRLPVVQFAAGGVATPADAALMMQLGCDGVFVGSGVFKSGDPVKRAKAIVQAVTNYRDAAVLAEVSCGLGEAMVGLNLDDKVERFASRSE
B2: Pyridoxal 5'-phosphate synthase subunit PDX1.3 (Arabidopsis thaliana (Mouse-ear cress)), Q8L940 (parent)
chain: B1 chain
partner: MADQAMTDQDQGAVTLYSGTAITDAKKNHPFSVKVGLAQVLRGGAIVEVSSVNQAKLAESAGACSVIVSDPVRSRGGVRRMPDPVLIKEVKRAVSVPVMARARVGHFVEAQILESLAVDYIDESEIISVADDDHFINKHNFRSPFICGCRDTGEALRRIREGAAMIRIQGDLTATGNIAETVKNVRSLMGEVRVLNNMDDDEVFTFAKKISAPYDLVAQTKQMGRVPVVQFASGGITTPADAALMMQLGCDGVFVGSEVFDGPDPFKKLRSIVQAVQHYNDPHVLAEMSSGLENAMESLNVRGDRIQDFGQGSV
B3: Pyridoxal 5'-phosphate synthase subunit PDX1.3 (Arabidopsis thaliana (Mouse-ear cress)), Q8L940 (parent)
chain: B1 chain
partner: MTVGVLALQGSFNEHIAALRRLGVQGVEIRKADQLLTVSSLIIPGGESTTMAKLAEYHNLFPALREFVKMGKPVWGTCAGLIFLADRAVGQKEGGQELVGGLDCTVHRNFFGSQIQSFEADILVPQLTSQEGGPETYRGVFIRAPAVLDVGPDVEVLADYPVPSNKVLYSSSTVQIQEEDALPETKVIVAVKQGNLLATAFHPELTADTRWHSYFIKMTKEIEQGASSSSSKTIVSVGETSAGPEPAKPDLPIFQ

Variants of: B1
Conditions: with pdx11_arath PDX11, O80448

effect of a mutation on the interaction	Variant
disrupting interaction	G54S

Variants of: B2
Conditions: with pdx12_arath PDX12, Q9ZNR6

effect of a mutation on the interaction	Variant
disrupting interaction	G54S

Variants of: B3
Conditions: with pdx2_arath PDX2, Q8LAD0

effect of a mutation on the interaction	Variant
disrupting interaction	G54S
